Values of other authors as cited in publication PMC4871753.

Target: RXFP1 (Homo sapiens) (UniProt Q9HBX9)
Chain of UniProt Q9HBX9 (Q9HBX9 whole entry): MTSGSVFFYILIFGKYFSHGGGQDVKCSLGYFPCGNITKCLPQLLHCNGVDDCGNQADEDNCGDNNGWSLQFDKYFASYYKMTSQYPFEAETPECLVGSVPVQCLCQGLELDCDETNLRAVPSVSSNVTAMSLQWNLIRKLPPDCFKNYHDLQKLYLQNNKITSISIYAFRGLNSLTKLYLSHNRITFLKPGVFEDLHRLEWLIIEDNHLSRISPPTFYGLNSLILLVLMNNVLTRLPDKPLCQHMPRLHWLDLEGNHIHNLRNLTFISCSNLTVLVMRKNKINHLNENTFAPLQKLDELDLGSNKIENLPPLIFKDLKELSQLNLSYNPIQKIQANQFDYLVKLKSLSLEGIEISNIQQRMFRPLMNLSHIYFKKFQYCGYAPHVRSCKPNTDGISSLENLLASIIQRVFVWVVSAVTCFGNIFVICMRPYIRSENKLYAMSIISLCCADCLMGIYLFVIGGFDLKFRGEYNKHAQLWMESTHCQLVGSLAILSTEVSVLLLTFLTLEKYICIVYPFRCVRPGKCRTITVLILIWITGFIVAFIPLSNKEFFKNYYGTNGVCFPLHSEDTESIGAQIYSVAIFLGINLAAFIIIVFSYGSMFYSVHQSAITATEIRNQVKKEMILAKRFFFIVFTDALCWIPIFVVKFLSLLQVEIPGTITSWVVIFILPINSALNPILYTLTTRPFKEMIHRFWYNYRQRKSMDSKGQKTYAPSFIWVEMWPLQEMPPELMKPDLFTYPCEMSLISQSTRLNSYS

Kd: 1.11 nM
Substance: NLuc-conjugated relaxin (from UniProt P04090)
